Source: article PMC10072072 (mAbs, 2023)
Residue numbers refer to the chain shown, from its start. Names and notes keep the numbering of the source.

B1: ADI-26906 IgG1 variant L3-R94E (antibody, V domains shown)
VH: QVQLVQSGAEVKKPGASVKVSCKASGFNIKDYYMHWVRQAPGQRLEWMGWIDLENANTIYDAKFQGRVTITRDTSASTAYMELSSLRSEDTAVYYCARDAYGRYFYDVWGQGTLVTVSS
VL: DIVMTQSPDSLAVSLGERATINCKSSQSLLNARTGKNYLAWYQQKPGQPPKLLIYWASTRESGVPDRFSGSGSGTDFTLTISSLQAEDVAVYYCKQSYSERTFGGGTKVEIK
B2: ADI-26906 IgG1 (antibody, V domains shown)
VH: B1 VH
VL: B1 VL with E100R
B3: ADI-26906 Fab (from CHO-produced IgG, papain digest) (Fab, V domains shown)
VH: B1 VH
VL: B1 VL with E100R

How the values were obtained:
[1] = target: CD3 on the surface of cyno HSC-F T cells (Macaca fascicularis (HSC-F), UniProt Q95LI5;Q95LI8); test: flow cytometry on cells
[2] = target: CD3 on the surface of human Jurkat T cells (Homo sapiens (Jurkat), UniProt P07766;P04234); test: flow cytometry on cells
[3] = target: Human CD3 epsilon-delta (εδ) heterodimer, Fc fusion (Homo sapiens, UniProt P07766;P04234); test: BLI
[4] = target: Cyno CD3εδ heterodimer, Fc fusion (Macaca fascicularis, UniProt Q95LI5;Q95LI8); test: BLI
Chain of Cyno CD3εδ heterodimer, Fc fusion (Q95LI5 22-117, stated change not applied, chain 1 of 2): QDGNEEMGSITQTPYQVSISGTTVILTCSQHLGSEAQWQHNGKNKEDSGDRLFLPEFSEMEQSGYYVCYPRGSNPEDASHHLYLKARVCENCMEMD
Chain of Cyno CD3εδ heterodimer, Fc fusion (Q95LI8 22-100, stated change not applied, chain 2 of 2): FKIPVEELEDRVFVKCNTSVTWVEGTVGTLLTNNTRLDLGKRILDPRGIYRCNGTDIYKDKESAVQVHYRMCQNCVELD

Chain of CD3 on the surface of cyno HSC-F T cells (Q95LI5 22-198, one chain of several): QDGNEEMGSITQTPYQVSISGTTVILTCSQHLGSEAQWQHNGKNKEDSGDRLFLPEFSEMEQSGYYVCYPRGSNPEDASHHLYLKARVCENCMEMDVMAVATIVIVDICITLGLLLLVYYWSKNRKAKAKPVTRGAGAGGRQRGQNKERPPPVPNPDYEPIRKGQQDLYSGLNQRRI
Chain of Human CD3 epsilon-delta (εδ) heterodimer, Fc fusion (P07766 23-126, stated change not applied, chain 1 of 2): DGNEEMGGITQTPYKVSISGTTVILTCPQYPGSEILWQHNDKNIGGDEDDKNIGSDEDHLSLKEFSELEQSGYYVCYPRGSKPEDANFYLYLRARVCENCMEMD
Chain of Human CD3 epsilon-delta (εδ) heterodimer, Fc fusion (P04234 22-100, stated change not applied, chain 2 of 2): as the sequence (Q95LI8 22-100, stated change not applied, chain 2 of 2) above, with V5I, K15N, V20I, T32S, N33D, N34I, A64T, N74S counted along it
Chain of CD3 on the surface of human Jurkat T cells (P07766 23-207, one chain of several): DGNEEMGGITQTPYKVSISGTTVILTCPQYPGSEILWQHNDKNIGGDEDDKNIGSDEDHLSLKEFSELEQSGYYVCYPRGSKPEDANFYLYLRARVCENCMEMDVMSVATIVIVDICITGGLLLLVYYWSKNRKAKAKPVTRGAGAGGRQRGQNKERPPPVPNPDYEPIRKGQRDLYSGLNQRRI

Binder	binding result [1]	binding result [2]	binding result [3]	binding result [4]
B1	binds	binds	binds	binds
B2	binds			binds
B3	binds			
